Data published in article PMC3852656.

Experiments:
[1] = molecular target: superfolder Cherry (sfCherry); experiment: crystal structure; sfCherry alone, 2.0 Å, space group P21, eight copies in the asymmetric unit; 0.1 M SPG buffer pH 5.0, 25% PEG 1500
[2] = molecular target: superfolder Cherry (sfCherry); experiment: native gel or EMSA; native polyacrylamide gel at ∼10 mg/ml protein concentration

stoichiometry N [1]: 2 | percent dimer [2]: 50% | stoichiometry N [2]: 2
Substance: superfolder Cherry (sfCherry)
